Drawing on article PMC9175492, this text covers Kd and fold induction of luminescence for 4 substances.

The target of assay [1] is proteins in FBS (bovine (fetal bovine serum)). The assay is described as follows: fluorescence polarisation. (Fluorescence polarisation rises when a labelled molecule tumbles more slowly, as on binding a larger partner.)
Assay [2] has as its target LgBit, an 18-kDa subunit of NanoLuc. The assay is described as follows: split reporter.

As usually defined, the Kd is the constant that tells how readily two partners part at equilibrium. In the case of NF-labeled CPP12 (peptide), the Kd in assay [1] was found to be 1.3 µM. In other words, the single-digit micromolar range.
In assay [1], FITC-labeled CPP12 (peptide) gave a Kd of 29 µM.
Substance TMR-labeled CPP12 (peptide) yielded a Kd in assay [1] of 27 µM.
CPP12-HiBit conjugate (peptide) displayed a fold induction of luminescence at 10 μM in assay [2] of 200 fold.
